Substitutions are numbered along the chain they refer to. One block for each binder: values may come before it.
Experiments:
[1] = target: T1, recombinant human Macrophage Migration Inhibitory Factor (MIF 2-115) (human, UniProt P14174 2-115); assay: SPR (BIAcore T200), rhMIF immobilised on CM5 chip, 1:1 Langmuir model
T1 construct: rhMIF bought from R&D Systems; The background describes MIF as a homotrimer but also as monomer, dimer or higher oligomers; In the cell assays (THP-1, human PBMC) the MIF is the cells' own; also called rhMIF; human MIF
T1 sequence (P14174 2-115): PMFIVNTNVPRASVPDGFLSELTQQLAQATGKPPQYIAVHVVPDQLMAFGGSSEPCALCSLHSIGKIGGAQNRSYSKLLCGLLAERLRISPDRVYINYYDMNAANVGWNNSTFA
Experimental: Surface plasmon resonance (SPR) experiments were performed on a BIAcore T200 system (GE Healthcare). Recombinant mouse MIF (rmMIF) or rhMIF (R&D systems) was immobilized on a CM5 chip (GE Healthcare). Briefly, the carboxylated dextran matrix was activated by injection of 0.2 M N-ethyl-N′-(3-[…]) carbodiimide (EDC) and 0.05 M N-hydroxysuccinimide (NHS) at a flow rate of 5 μl/min for 7 min. A rmMIF solution of 5 μg/ml prepared in coupling buffer (50 mM sodium acetate pH 4.0) was subsequently injected until 200 R.U. was immobilised. Next, the surface immobilisation was blocked by injection of 1 M ethanolamine hydrochloride for 7 min. As a reference, the surface in another flow cell was used and treated only with EDC, NHS, and ethanolamine. Data for the rmMIF-ISVD interaction were collected in the format of a kinetic titration (27). […] Analyte injections were performed with association phases of 180 s and a dissociation phase of 600 s. This was followed by 5 pulses of 15 μl regeneration buffer (HBS+100 mM NaOH). Prior to data analysis, reference and zero concentration data were subtracted from the sensorgrams. The data were analyzed with a 1:1 Langmuir binding model (27). Data for the rhMIF-ISVD interaction were collected as described elsewhere (28) and analyzed with a 1:1 Langmuir binding model.

[2] = target: T1, recombinant human Macrophage Migration …; assay: SPR (summary in the discussion)

Kd [1]: 35 nM
B1: anti-MIF ISVD D4 (VHH)
VHH: KVQLVESGGGLVQDGGSLRLSCAASGRTASIQVMGWFRQAPGKEREFVGNIGWNYGLTLYPDSVKGRFTISRDNAKNTVYLQMNNLKPEDTAVYYCAARIGTTTYDYWGQGTQVTVSS
notes: Family III; Expressed from pAX100, purified by IMAC

Kd [1]: 16.5 nM
B2: anti-MIF ISVD D2 (VHH)
VHH: B1 VHH with K1E, Q32H, V33T, K43Q, E46G, P61A, T104P
notes: as for B1

Kd [1]: 2.96 nM
B3: anti-MIF ISVD A2 (VHH)
VHH: B1 VHH with K1E, P61A, S63P, T103I
notes: as for B1

binding result [2]: binds
B4: anti-MIF ISVD F10 (VHH)
VHH: B1 VHH with K1E, D73G, T78A
notes: as for B1

Kd [1]: 37.8 nM
B5: anti-MIF ISVD B5 (VHH)
VHH: EVQLVESGGGLVQAGGSLRLSCAASGRSFSNYIMGWFRQAPGKEREFVANISWNYGTTFYADSVKGRFTISGDSAKNTVYLQMTSLKPEDTAVYYCAARPVRGGRNFDYWGQGTQVTVSS
notes: Family I. Expressed from pAX100, purified by IMAC

Kd [1]: 64.5 nM
B6: anti-MIF ISVD E10 (VHH)
VHH: EVQLVESGGGSVQAGDSLRLSCAASGRTLSNSIMGWFRQAPGKEREFVANINWSGTSRLYADSVKGRFTISRDNTKSTVYLQMNSLKPEDTAIYYCAARSSTMSATDYWGQGTQVTVSS
notes: Family VII; Monovalent llama VHH expressed in E. coli from pAX100 and purified by IMAC (His-Trap) and gel filtration; also called Nb E10; monovalent E10

Kd [1]: 41.2 nM
B7: anti-MIF ISVD C10 (VHH)
VHH: EVQLVESGGGLVQAGGSLRLSCAASGRTSSIVAIGWFRQAPGKEREFVSNIGWKFGSTVYVDSVKGRFTISKDNAKNTVYLQMNSLKPEDTAVYRCAARSDGRVYDSWGQGTQVTVSS
notes: Family II; Expressed from pAX100, purified by IMAC

Kd [1]: 27.5 nM
B8: anti-MIF ISVD H5 (VHH)
VHH: EVQLVESGGGLVQPGGSLRLSCVASGFTFRTYAMSWVRQAPGKGSEWVSTINNGGGVTGYADSVEGRFTISRDNAKNTLYLQMNSLKPEDTAVYYCAKGTSRGQGTQVTVSS
notes: Family IV; Expressed from pAX100, purified by IMAC

Kd [1]: 166 nM
B9: anti-MIF ISVD D12 (VHH)
VHH: EVQLVESGGGLVQAGGSLRLSCAASGRTISSYIVGWFRQAPGKEREFVANIGWSGSMPLYADSVKGRFTIFRDNAKNTVYLEMNKLKPEDTAVYYCAARGAGQLTNDYWGQGTQVTVSS
notes: Family VI; Expressed from pAX100, purified by IMAC

Kd [1]: 9.41 nM
B10: anti-MIF ISVD E5 (VHH)
VHH: EVQLVESGGGLVHAGGSLRLSCAASGRTFSSYFMGWFRQAPGKAREFVANINFSGGTTVYASSVKGRFTISRDNSKNTVYLQMNSVKPEDTAVYYCVARGLTQDYDYWGQGTQVTVSS
notes: Family V. Expressed from pAX100, purified by IMAC; also called Nb E5

Kd [1]: 80.3 nM
B11: anti-MIF ISVD H9 (VHH)
VHH: B10 VHH with F29S, S31T, M83L, V97S, T102N, D104E, Y107F
notes: Family V. Expressed from pAX100, purified by IMAC
